Measurements taken from the supplement of paper PMC11780869.

Tested on: Bacillus subtilis
Test: cleaved RNA product abundance (RNA/gDNA barcode ratio) relative to median wild-type variant (ratio to wild type); higher = more accumulation of the downstream cleavage product
Experimental: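 MPRA in B. subtilis. Mutagenized RNase Y cleavage-site regions (9% mutation rate) were inserted into a barcoded reporter mRNA (truncated aprE or tetM). Cells were grown in LB at 37°C to OD600 0.3. The cleaved RNA isoform was gel-purified and its barcodes counted; the RNA:gDNA barcode ratio was normalised to the median wild-type variant, and the median over barcodes is reported per variant. The printed sequence is the variable window only; the reporter flanks are not printed.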

[1] = experiment (reporter, strain, medium): exp 4a: truncated aprE reporter, strain BJT201 with 2% xylose (RNase J1 expressed), cleavage site: cggR-gapA (positions -7 to +36 mutated)
[2] = experiment (reporter, strain, medium): exp 2b: truncated aprE reporter, strain BJT200, cleavage site: cggR-gapA (positions -7 to +36 mutated)
[3] = experiment (reporter, strain, medium): exp 8a: truncated aprE reporter, strain BJT201 with 2% xylose (RNase J1 expressed), cleavage site: glnRA (positions -5 to +31 mutated)

Sequence	cleaved RNA product abundance [1]	cleaved RNA product abundance [2]	cleaved RNA product abundance [3]
ACAGACGAAGGAGCCGCAAAGAAGTTATTAACGGATGAATAATCCCTCAATACAAATATCTCTCACTTATTTAAA	0.0789	–	–
ACAGACGAAGGAGCCGCAAAGTAGTTATTAAGGGATGAATAAGCCCTCAATATAAATATCTCTCACTTATTTAAA	0.448	–	–
ACAGACGAAGGAGCCGCAAAGAAGTTGTTAAGGGATGAATAAACCCTCAATATAAATATCTCTCACTTATTTAAA	0.2	–	–
ACAGACGAAGGAGCCGCAAAGAAGTAATTAAGGGATCAATAATCCCTCAATATAAATATCTCTCACTTATTTAAA	0.305	0.181	–
ACAGACGAAGGAGCCGCATAGAAGTTATAAAGGGATGAATAATCCCTCAATATAAATATCTCTCACTTATTTAAA	0.339	–	–
ACAGACGAAGGAGCCGCAAAGAAATTATTAAGGGATGACTAATCCCTCAATATAAATATCTCTCACTTATTTAAA	0.573	0.453	–
CGACATGTCCCGCTTCTTTCATTAATCCGTTAGCAACTGTTTTGCCATATACACTTACCTTTTAAGAGGAGGAAT	–	–	0.161
CGACATGTCCCGCTTCTTTCATTAATCCGTTAGCGACTGTTTTGATATATACATTTACCTTTTAAGAGGAGGAAT	–	–	0.24
ACAGACGAAGGAGCCGCAAAGAAGTTATTAAGGTATGAATAATCACTCAATATAAATATCTCTCACTTATTTAAA	0.142	–	–
CGACATGTCCCGCTTCTTTCATTAATCCGTTAGCAACTGTTTTGCTAGATACATATACCTTTTAAGAGGAGGAAT	–	–	0.781
ACAGACGAAGGAGCCGCAAAGAAGTGATTAAGAGATGAATAATCCCTCAATATAAATATCTCTCACTTATTTAAA	0.133	0.0989	–
ACAGACGAAGGAGCCGCAAAGAAGCTATTAAGGGATGAATAATCCCTCAGTATAAATATCTCTCACTTATTTAAA	–	0.135	–
ACAGACGAAGGAGCCGCAAAGAAGTTATTAAGGGATGAATCATCTCTCAATATAAATATCTCTCACTTATTTAAA	0.595	–	–
CGACATGTCCCGCTTCTTTCATTAATCCATTAGCAACTGTTTGGCTATATACATTTACCTTTTAAGAGGAGGAAT	–	–	0.386
ACAGACGAAGGAGCCGCAAAGAAGTTATTAAGGAATGAATAGTCCCTCAATATAAATATCTCTCACTTATTTAAA	0.114	0.101	–
ACAGACGAAGGAGCCGCAAAGAAGTTATTAAGTGGTGAATAATCCCTCAATATAAATATCTCTCACTTATTTAAA	0.103	–	–
ACAGACGAAGGAGCCGCAAATAAGTTATTAAGGGATGAATAATCCCTTAATATAAATATCTCTCACTTATTTAAA	0.452	–	–
ACAGACGAAGGAGCCGCAAAGAAGTTATTAAGGGATGAATAGTCCCTAAATATAAATATCTCTCACTTATTTAAA	0.547	–	–
ACAGACGAAGGAGCCGCAAAGAAGTCATTAAGGGATGAATAATCCCTCAATATAAACATCTCTCACTTATTTAAA	0.333	–	–
ACAGACGAAGGAGCCGCAAAGAAGTTATTAAGGGATGAATAAACCCTCAAAATAAATATCTCTCACTTATTTAAA	0.198	0.196	–
ACAGACGAAGGAGCCGCAAAGAATTTATTAAGGGATGAATAATCCCTCATTATAAATATCTCTCACTTATTTAAA	0.377	0.278	–
ACAGACGAAGGAGCCGCAAAGAAGTTATTAAAGGATGGATAATCCCTCAATATAAATATCTCTCACTTATTTAAA	0.141	–	–
ACAGACGAAGGAGCCGCAAAGAAGTTATTAAGGAATGAGTAATCCCTCAATATAAATATCTCTCACTTATTTAAA	0.131	0.119	–
